Results as given in publication PMC11199686.

What was measured:
[1] = biological target: fibrin made from purified fibrinogen with thrombin (UniProt P02679); assay: radioligand binding; saturation: fixed 125I-factor H (250,000 cpm, 80 ng/well) mixed with unlabeled factor H (0-5,120 ng/well) on fibrin-coated wells; 30 min, 37°C
[2] = biological target: fibrin made from purified fibrinogen with thrombin (UniProt P02679); assay: radioligand binding; inhibition: 125I-factor H (2 μg/well) premixed on ice with unlabeled factor H (0-30 μg/well) or ovalbumin, on fibrin-coated wells; 30 min, 37°C
[3] = biological target: fibrin clots formed in human plasma (human (endogenous in plasma)) (UniProt P02679); assay: co-sedimentation; time course: enhanced clots formed in plasma with 125I-ligand (25,000 cpm), eight times from 0 to 960 min at 37°C; washed with HEPES-1/2-saline (non-denaturing)
[4] = biological target: fibrin clots formed in human plasma (human (endogenous in plasma)) (UniProt P02679); assay: co-sedimentation; enhanced clots: as the plasma clots but with extra fibrinogen (2 mg/ml) added; 40 min, 37°C; 70 mM, 140 mM or 1 M salt; washed with reaction buffer (HEPES-1/2-saline at 70 mM)
[5] = biological target: fibrin made from purified fibrinogen with thrombin (UniProt P02679); assay: radioligand binding; 125I-ligand (100,000 cpm) on fibrin-coated wells in veronal buffer ([…] sodium barbital, […] CaCl2, 0.5 mM MgCl2, pH 7.4) with 20, 75 or 150 mM NaCl; 30 min, 37°C; washes at the same NaCl
[6] = biological target: fibrin clots formed in human plasma (human (endogenous in plasma)) (UniProt P02679); assay: co-sedimentation; panel of 125I-labelled plasma proteins (25,000 cpm each) present while enhanced clots formed in plasma; 16 h, 37°C; clots washed three times in 10 mM HEPES, 70 mM NaCl, 0.5 mM EDTA, 5 M urea pH 7.4
[7] = biological target: fibrin made from purified fibrinogen with thrombin (UniProt P02679); assay: co-sedimentation; fibrin-only clots: 3.5 mg/ml purified fibrinogen with 125I-ligand (25,000 cpm) in 10 mM HEPES, 70 mM NaCl, 5 mM CaCl2 pH 7.4, clotted with thrombin (8.75 μg/ml), 40 min, 37°C; washed with HEPES-1/2-saline
[8] = biological target: fibrin clots formed in human plasma (human (endogenous in plasma)) (UniProt P02679); assay: cross-linking; 125I-ligand (25,000 cpm) with 0.9% plasma and 20 μg fibrinogen in 50 μl HEPES-1/2-saline, 20 mM CaCl2, 16 h, 37°C; cross-linking by the FXIIIa of the plasma; washed clots on reducing SDS-PAGE (4-12%), autoradiography
[9] = biological target: fibrin clots formed in human plasma (human (endogenous in plasma)) (UniProt P02679); assay: ELISA; levels of endogenous factor H (captured on monoclonal MRCOX23) and C1q (captured on ovalbumin antigen-antibody complexes) in citrated plasma and in the serum from the same plasma; the loss on clotting is taken as binding to clots
[10] = biological target: fibrin clots formed in human plasma (human (endogenous in plasma)) (UniProt P02679); assay: co-sedimentation; time course: enhanced clots formed in plasma with 125I-ligand (25,000 cpm), eight times from 0 to 960 min at 37°C; washed three times with 10 mM HEPES, 70 mM NaCl, 0.5 mM EDTA, 5 M urea pH 7.4; what stays is judged covalently bound
[11] = biological target: fibrin clots formed in human plasma (human (endogenous in plasma)) (UniProt P02679); assay: co-sedimentation; clots formed in 45% human plasma with 20 mM CaCl2 in the presence of 125I-ligand (25,000 cpm), 40 min, 37°C, at about 70 mM, 140 mM or 1 M salt; clots spun at 1,000 x g and washed three times in reaction buffer; bound = input minus cpm in supernatants
[12] = biological target: fibrin made from purified fibrinogen with thrombin (UniProt P02679); assay: radioligand binding; serial dilutions of 125I-ligand from 500,000 cpm/well on fibrinogen-, fibrin- or BSA-coated Maxisorp wells; 30 min, 37°C; 25 mM HEPES-0.1% Tween 20 pH 7.4 (20 mM in the legend), without or with 5 mg/ml fluid-phase BSA; bound label eluted with 0.1 M NaOH; Scatchard plot

Sequence of UniProt P02679 (P02679 whole entry, looked up): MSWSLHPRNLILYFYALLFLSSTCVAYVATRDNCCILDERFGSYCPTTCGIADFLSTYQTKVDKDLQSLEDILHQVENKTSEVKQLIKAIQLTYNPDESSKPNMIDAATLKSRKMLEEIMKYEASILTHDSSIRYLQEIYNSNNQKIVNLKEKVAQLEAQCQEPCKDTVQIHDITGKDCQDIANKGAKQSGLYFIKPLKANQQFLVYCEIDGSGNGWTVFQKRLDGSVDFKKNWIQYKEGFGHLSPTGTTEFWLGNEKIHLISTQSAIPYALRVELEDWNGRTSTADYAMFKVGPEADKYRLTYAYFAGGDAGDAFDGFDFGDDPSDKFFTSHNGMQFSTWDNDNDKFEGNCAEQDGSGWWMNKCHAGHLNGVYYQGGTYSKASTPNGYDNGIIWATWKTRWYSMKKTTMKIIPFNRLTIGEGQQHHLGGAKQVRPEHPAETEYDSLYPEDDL
Sequence of factor H (P08603 19-1231): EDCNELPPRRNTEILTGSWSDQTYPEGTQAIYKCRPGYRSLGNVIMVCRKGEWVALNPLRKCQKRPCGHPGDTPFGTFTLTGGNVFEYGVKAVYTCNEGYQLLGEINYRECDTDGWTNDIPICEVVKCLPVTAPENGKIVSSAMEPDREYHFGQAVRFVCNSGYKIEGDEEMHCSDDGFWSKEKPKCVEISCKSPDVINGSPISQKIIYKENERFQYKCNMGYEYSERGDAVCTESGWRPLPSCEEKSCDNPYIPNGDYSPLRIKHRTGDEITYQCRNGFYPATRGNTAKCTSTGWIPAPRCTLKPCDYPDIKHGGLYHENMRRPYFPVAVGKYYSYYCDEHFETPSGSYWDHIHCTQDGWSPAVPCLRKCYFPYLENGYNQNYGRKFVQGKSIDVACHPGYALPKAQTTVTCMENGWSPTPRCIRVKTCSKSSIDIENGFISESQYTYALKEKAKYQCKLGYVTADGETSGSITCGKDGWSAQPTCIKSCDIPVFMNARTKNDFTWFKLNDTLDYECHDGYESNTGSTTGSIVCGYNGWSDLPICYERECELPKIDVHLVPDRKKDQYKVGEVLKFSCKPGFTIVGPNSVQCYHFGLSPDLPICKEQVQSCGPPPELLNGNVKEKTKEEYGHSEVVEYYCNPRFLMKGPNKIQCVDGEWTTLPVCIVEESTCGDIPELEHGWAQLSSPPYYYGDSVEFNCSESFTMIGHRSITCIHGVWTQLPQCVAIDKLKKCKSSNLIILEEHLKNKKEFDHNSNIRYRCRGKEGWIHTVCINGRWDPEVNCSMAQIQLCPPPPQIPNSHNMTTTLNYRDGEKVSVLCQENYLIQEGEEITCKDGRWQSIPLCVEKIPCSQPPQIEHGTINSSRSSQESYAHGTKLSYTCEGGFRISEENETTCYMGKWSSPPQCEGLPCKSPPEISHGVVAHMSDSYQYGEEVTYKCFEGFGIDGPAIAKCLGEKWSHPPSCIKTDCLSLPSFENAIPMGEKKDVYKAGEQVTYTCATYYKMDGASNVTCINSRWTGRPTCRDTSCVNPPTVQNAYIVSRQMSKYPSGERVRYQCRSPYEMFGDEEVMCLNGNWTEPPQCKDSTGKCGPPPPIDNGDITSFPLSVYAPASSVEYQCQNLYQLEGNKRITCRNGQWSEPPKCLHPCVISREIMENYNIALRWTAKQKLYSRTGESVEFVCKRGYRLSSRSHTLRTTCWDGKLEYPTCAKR

Substance | percent of input bound at saturation (input 3.5 μg/well) [1] [%] | percent inhibition of the binding of 125I-factor H at an equal molar ratio of unlabeled to labeled factor H [2] [%] | percent bound at 30 min, non-denaturing wash [3] [%] | percent bound at 96 min, non-denaturing wash [3] [%] | fold increase of percent bound, enhanced clots over plasma clots without added fibrinogen, at 140 mM NaCl [4] [fold] | percent bound to enhanced plasma clots (HEPES-1/2-saline wash) [4] [%] | binding at 75 mM NaCl relative to that at 20 mM NaCl [5] [%] | Protein incorporated into fibrin clots (%) [6] [%] | percent bound to fibrin clots [6] [%] | percent bound to fibrin-only clots (HEPES-1/2-saline wash) [7] [%] | percent of 125I-factor H in the large cross-linked aggregate that did not enter the gel [8] [%] | percent of the plasma level lost in the serum of the same plasma (healthy volunteer sample) [9] [%] | percent bound at 30 min, after urea wash [10] [%] | percent bound at 96 min, after urea wash [10] [%] | percent bound at 960 min, after urea wash [10] [%] | percent bound to plasma clots at 70 mM salt [11] [%] | Kd [12] [nM] | percent of input bound (500,000 cpm/well) [12] [%]
factor H (from UniProt P08603 19-1231) (natural protein) | 0.1 | 48 | 22 | 26 | 6 | 21.5 | < 50 | 28.7 | 30 | 19 | 5.2 | 38 | 13 | 18 | 32.5 | 21.5 | 0.055 | 1.7
plasminogen (natural protein) |  |  |  |  |  |  |  | 32.8 | 31 |  |  |  |  |  |  |  |  | 
